Data reported in the RNAGym collection of RNA variant scans (doi:10.7554/elife.80360).

B1: Hammerhead Ribozyme (parent)
chain: ACCGGAUGUGCUUUCCGGUCUGAUGAGUCCGUGAGGACGAAACAG

Variants of: B1
Test: self-cleavage, relative activity (ratio to wild type); higher = more cleavage; co-transcriptional

Variant | self-cleavage
ACCGGAUGUGCUUUACGGUCUGAUGAGUCCGUGAGUACGAAACAG | 0.341
CCCGGAUGUGCUUUCCGGUCUGAUGAGUCCGUGAGGACGGAACAG | 0.298
ACCGGAUGUGCUUUCCGGUCUGAUGAGGCCGGGAGGACGAAACAG | 0.449
ACCGGAUGAGUUUUCCGGUCUGAUGAGUCCGUGAGGACGAAACAG | 0.572
GCCGGAUGUGCCUUCCGGUCUGAUGAGUCCGUGAGGACGAAACAG | 1.71
ACCGGAUGCGCUUUCCGGUCUGAUGAGUCCGUGAGGACGAAACUG | 0.661
ACCGGAUGUGCAUUCCGGUCUGAUGAGUCCGUGAGGACGAAACGG | 1.66
ACCGGAUGUGCUCUCCGGUCUGAAGAGUCCGUGAGGACGAAACAG | 1.64
ACCGGAUGUGCUUUCCGGUCUCAUGAGUCCGUGGGGACGAAACAG | 0.306
ACCGGAUGAGCUUUCCGGUCUGAUGUGUCCGUGAGGACGAAACAG | 0.865
ACCGGAUGUGCUUUCCGGUCUGCUGAGUCCGUGAGGACGAACCAG | 0.31
ACGGGAUGUGCUUUCCGGUCUGAUGAGUCCGUGAGGACGAAACAC | 0.35
ACCGGAUGUGCUUUCCGGUCUGAUGAGACCGUGAGGACGAAGCAG | 0.25
ACCGGAUGGGCUUUCCGGUCUGAUGAGUCCGUGAGGGCGAAACAG | 0.983
ACCGGAGGUGCUUUCCGGUCUGAUGAGUUCGUGAGGACGAAACAG | 1.02
ACCGGAUGUGCUUUCCAGUCUUAUGAGUCCGUGAGGACGAAACAG | 0.345
CCAGGAUGUGCUUUCCGGUCUGAUGAGUCCGUGAGGACGAAACAG | 0.426
ACCGGAUGUGCUUUCCGGUCUGAUGAGUCCGUGAUGACUAAACAG | 0.42
ACCGGAUGUGCUUUCUGGUCUGAUGAGUCCGUGAGGAAGAAACAG | 0.73

Variant | self-cleavage
ACCAGAUGUGCUUUCCGGUCUGAUGAGUCCGUGAGGAAGAAACAG | 0.373
ACCGGAUGUGCUUUCCGGUCUGAUUAGUCCGUGAGGAGGAAACAG | 0.382
CCCGGAUGUGCUUUCCGGUCUUAUGAGUCCGUGAGGACGAAACAG | 0.466
ACCGGAUGUGCAGUCCGGUCUGAUGAGUCCGUGAGGACGAAACAG | 0.762
ACCGGAUGUGCUUUCCGGUCUGAUGAGUCCGUGAGGACGAGAAAG | 0.317
ACCGGAAGUGCUUUCCGGUCUGAUGAGUCCGUGAUGACGAAACAG | 0.751
ACCGAAUGUGCUUUCGGGUCUGAUGAGUCCGUGAGGACGAAACAG | 0.931
ACCGGAUGUGCUUUCCGGUUUGAUGAGUCCGUUAGGACGAAACAG | 0.762
AACGGAUGUGCUUUCAGGUCUGAUGAGUCCGUGAGGACGAAACAG | 0.365
ACCGGAUGUGCUUUCCGGUCUGAUGAGUCCGUGAUGACGACACAG | 0.305
ACCGGAUGUGCUUUCCGAUCUGAUGAGUCCGUGAGGGCGAAACAG | 0.676
ACCGGAUGUGCUUUCCGGUCUGAUGAGUUCGUGAGGACGGAACAG | 0.389
ACCGGAUGUGCUUUCCGGUAUGAUGAGUUCGUGAGGACGAAACAG | 0.357
ACCGGAUGUGCUUUCCGGUCUGAUGAGUCUGUGAGGACGAAACAU | 0.981
ACCGGAUGUGCUUUCCGGUCAGAUGAGUCCGUGCGGACGAAACAG | 0.439
ACCGGAUGUGCUUUCCGGUCUGAUGAGUCCGUCAGGACGAAACAC | 0.46
ACCGGAUGUGCUUUCCGGUAUGAUGAGUCCGUGAGGACGAAUCAG | 0.386
ACCGGAUGUGCUUUCCGGUCUGACGAGUCCGAGAGGACGAAACAG | 1.18
ACCGGAUGAGCUUUCCGGUCUGAUGAGUCCGUGCGGACGAAACAG | 1.2

Variant | self-cleavage
ACCGGAUGUGCUUUCCGGUAUGUUGAGUCCGUGAGGACGAAACAG | 0.36
ACCGGAUGGGCUUUCCGGUCUGAUGAGUCCGUGAGGACGGAACAG | 0.366
ACCGGAUGUGCUUUCCGGUCUGAUGAUUCCGUGAGGUCGAAACAG | 0.521
ACCGGAUGUGCUUUCCGGUCUGAUGAGUCUGUGAGGACGAAACCG | 0.632
ACCGGAUGUGCUUUCCGGUCUGAUGAAUCCGUGAAGACGAAACAG | 0.505
ACCGGAUGUGCUUUCAGGUCUGAUGAGUCCAUGAGGACGAAACAG | 1.22
ACCGGAUGUGCUUUCCGGUCUGAUGAGUCCGUGAGUACGAAACGG | 0.706
ACCGGAUGAGCUUUCCGGUCUGAUGAGUCCGCGAGGACGAAACAG | 0.953
ACCGGAUGUGCUUUCCGAUCUGAUGAGUCCGUGAGGACGAAACAC | 0.446
ACCGGGUGUGCUUUCCGGUCUGAUGAGUCCGUGAGGACGUAACAG | 0.247
ACCGGAUCUGCUUUCCGGUCUGAUGCGUCCGUGAGGACGAAACAG | 0.434
ACCGGAUGUGCUUUCCGAUAUGAUGAGUCCGUGAGGACGAAACAG | 0.326
ACCGGAUGUCCUUUCCGGUCUGAUGAGUCCGUGAGGAAGAAACAG | 0.79
AUCGGAUGUGCUUUCCGGUUUGAUGAGUCCGUGAGGACGAAACAG | 0.797
ACCGGAUGUGCUUUCCGGUCUGAUGAGACCGUGAGGACGAAACAC | 0.365
AACGGAUGUGCUUUCCGCUCUGAUGAGUCCGUGAGGACGAAACAG | 0.922
ACCGGAUGUGCUUUCCGGUCUGAUGACUCCGUGAGGACGAAACAG | 0.843
ACCUGAUGUGCUUUCCGGCCUGAUGAGUCCGUGAGGACGAAACAG | 0.345
ACCGGAUGGGCUUUGCGGUCUGAUGAGUCCGUGAGGACGAAACAG | 0.729
